# Reference: patent US20250382373A1 (BIOCYTOGEN PHARMACEUTICALS BEIJING, published 2025)
# Where two headings read alike, the source gives them in different places.
# How the values were obtained:
# [1] = molecular target: T1, His-tagged human MET protein (human, UniProt P08581 25-932); experiment: SPR (Biacore 8K), antibody on Protein A chip
# T1 construct: Bought protein; also called hMET-His; not shown: His tag
# human MET on SNU-5 cells = molecular target: T2, human MET on SNU-5 cells (human, UniProt P08581 25-1390); experiment: flow cytometry on SNU-5 cells
# T2 construct: whole, on cells; Endogenous MET of SNU-5 cells
# T2 sequence (P08581 25-1390): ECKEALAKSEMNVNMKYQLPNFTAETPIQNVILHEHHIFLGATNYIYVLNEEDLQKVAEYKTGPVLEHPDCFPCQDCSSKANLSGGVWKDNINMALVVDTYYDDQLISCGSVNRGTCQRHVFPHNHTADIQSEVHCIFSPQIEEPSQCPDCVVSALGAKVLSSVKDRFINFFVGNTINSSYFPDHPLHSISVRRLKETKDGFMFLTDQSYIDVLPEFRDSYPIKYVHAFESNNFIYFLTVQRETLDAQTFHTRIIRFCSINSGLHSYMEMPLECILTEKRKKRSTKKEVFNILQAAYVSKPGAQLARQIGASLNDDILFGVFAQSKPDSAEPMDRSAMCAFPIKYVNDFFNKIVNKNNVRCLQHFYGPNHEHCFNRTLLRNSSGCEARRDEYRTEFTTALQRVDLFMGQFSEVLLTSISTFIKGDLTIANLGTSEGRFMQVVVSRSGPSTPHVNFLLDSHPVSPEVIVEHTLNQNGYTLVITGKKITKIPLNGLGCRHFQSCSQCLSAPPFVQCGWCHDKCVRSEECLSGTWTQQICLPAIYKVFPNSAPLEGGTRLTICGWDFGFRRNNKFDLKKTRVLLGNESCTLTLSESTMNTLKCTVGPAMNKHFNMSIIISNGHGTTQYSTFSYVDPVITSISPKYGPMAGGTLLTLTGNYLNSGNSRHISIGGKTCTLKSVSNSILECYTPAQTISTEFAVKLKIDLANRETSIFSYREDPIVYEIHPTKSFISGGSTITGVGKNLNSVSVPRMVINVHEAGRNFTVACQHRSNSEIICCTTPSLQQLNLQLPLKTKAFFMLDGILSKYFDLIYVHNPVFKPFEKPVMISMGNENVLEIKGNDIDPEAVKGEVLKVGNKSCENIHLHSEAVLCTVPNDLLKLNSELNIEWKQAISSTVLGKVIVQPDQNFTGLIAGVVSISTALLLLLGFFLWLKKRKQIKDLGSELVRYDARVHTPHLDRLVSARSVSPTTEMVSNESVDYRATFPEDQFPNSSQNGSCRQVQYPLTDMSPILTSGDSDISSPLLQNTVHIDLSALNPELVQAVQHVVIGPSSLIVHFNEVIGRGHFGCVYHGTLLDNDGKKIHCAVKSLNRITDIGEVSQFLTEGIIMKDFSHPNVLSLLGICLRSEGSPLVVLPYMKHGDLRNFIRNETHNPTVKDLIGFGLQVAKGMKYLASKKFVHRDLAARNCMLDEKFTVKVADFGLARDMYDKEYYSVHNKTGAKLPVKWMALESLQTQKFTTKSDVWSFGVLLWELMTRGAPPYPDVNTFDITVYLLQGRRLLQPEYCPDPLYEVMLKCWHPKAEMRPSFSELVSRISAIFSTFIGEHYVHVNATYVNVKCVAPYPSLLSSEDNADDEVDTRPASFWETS
# [2] = molecular target: T3, monkey MET on fasMET-NIH3T3 cells (monkey (Macaca fascicularis)); experiment: flow cytometry on fasMET-NIH3T3 cells; further: test concentration or dose not given here
# T3 sequence (chain, as listed by the source limits assumed): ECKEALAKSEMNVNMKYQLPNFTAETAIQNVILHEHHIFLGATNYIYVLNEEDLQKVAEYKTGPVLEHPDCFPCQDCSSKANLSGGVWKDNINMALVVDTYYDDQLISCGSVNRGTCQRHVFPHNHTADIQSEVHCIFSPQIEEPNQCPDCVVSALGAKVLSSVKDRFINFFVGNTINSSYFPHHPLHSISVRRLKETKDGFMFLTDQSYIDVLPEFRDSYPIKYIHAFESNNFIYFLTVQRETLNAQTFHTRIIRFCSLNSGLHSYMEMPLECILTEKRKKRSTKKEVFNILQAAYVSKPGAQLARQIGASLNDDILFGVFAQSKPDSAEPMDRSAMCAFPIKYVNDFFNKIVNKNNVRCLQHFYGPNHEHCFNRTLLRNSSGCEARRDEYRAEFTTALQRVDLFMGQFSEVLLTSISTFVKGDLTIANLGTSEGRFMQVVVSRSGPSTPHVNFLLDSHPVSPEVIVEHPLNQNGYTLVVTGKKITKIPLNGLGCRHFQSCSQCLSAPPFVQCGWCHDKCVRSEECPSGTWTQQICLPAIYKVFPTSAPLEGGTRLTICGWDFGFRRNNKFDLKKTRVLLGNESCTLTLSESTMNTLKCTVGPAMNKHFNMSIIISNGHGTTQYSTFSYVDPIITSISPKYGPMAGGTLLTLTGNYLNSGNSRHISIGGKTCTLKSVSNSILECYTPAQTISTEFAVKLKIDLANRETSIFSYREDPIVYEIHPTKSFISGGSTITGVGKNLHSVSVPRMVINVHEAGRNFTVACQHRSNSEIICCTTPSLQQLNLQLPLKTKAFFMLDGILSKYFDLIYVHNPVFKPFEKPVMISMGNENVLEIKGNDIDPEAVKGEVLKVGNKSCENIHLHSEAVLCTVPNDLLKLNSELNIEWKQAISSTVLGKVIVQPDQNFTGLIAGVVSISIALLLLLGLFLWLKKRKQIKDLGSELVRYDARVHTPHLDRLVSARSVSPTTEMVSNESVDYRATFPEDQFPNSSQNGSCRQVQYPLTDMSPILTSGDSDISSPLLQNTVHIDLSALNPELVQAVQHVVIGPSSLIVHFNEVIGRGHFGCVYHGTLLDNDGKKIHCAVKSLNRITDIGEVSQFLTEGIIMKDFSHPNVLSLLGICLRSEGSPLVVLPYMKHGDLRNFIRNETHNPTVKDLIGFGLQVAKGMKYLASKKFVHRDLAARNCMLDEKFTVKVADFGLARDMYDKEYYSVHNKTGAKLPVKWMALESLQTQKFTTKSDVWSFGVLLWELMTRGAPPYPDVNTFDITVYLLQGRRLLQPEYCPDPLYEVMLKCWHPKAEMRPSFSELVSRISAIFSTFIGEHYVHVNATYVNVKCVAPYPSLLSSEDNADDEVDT
# [3] = molecular target: T3, monkey MET on fasMET-NIH3T3 cells; experiment: flow cytometry on fasMET-NIH3T3 cells; remark: listed apart in the source; further: test concentration or dose not given here
# [4] = molecular target: T1, His-tagged human MET protein; experiment: SPR (Biacore 8K), antibody on Protein A chip; remark: listed apart in the source
# [5] = molecular target: human MET on hMET-NIH3T3 cells (human, UniProt P08581 25-1390); experiment: flow cytometry on hMET-NIH3T3 cells; further: test concentration or dose not given here
# Sequence of human MET on hMET-NIH3T3 cells (P08581 25-1390 limits assumed): as the sequence (P08581 25-1390) above
# [6] = molecular target: T4, monkey EGFR on CHO-S-fasEGFR cells (monkey (crab-eating macaque; Macaca …, UniProt P55245 25-645); experiment: flow cytometry on CHO-S-fasEGFR cells; further: test concentration or dose not given here
# [7] = molecular target: T5, human EGFR on CHO-S-hEGFR cells (human, UniProt P00533 25-645); experiment: flow cytometry on CHO-S-hEGFR cells
# [8] = molecular target: T6, His-tagged human EGFR protein (human, UniProt P00533 25-645); experiment: SPR (Biacore 8K), antibody on Protein A chip
# T6 construct: Bought protein; also called hEGFR-His; not shown: His tag
# [9] = molecular target: T7, His-tagged monkey EGFR protein (monkey (crab-eating macaque; Macaca …, UniProt A0A2K5WK39 25-645); experiment: SPR (Biacore 8K), antibody on Protein A chip
# T7 construct: also called fasEGFR-His; not shown: His tag
# [10] = molecular target: T1, His-tagged human MET protein; experiment: SPR (Biacore 8K), Protein A chip
# [11] = molecular target: T6, His-tagged human EGFR protein; experiment: SPR (Biacore 8K), Protein A chip
# [12] = molecular target: T7, His-tagged monkey EGFR protein; experiment: SPR (Biacore 8K), Protein A chip
# [13] = molecular target: T4, monkey EGFR on CHO-S-fasEGFR cells; experiment: flow cytometry on CHO-S-fasEGFR cells; remark: listed apart in the source; further: test concentration or dose not given here
# [14] = molecular target: T5, human EGFR on CHO-S-hEGFR cells; experiment: flow cytometry on CHO-S-hEGFR cells; remark: listed apart in the source
# [15] = molecular target: T6, His-tagged human EGFR protein; experiment: SPR (Biacore 8K), antibody on Protein A chip; remark: listed apart in the source
# [16] = molecular target: T7, His-tagged monkey EGFR protein; experiment: SPR (Biacore 8K), antibody on Protein A chip; remark: listed apart in the source
# T1 sequence (P08581 25-932 limits assumed): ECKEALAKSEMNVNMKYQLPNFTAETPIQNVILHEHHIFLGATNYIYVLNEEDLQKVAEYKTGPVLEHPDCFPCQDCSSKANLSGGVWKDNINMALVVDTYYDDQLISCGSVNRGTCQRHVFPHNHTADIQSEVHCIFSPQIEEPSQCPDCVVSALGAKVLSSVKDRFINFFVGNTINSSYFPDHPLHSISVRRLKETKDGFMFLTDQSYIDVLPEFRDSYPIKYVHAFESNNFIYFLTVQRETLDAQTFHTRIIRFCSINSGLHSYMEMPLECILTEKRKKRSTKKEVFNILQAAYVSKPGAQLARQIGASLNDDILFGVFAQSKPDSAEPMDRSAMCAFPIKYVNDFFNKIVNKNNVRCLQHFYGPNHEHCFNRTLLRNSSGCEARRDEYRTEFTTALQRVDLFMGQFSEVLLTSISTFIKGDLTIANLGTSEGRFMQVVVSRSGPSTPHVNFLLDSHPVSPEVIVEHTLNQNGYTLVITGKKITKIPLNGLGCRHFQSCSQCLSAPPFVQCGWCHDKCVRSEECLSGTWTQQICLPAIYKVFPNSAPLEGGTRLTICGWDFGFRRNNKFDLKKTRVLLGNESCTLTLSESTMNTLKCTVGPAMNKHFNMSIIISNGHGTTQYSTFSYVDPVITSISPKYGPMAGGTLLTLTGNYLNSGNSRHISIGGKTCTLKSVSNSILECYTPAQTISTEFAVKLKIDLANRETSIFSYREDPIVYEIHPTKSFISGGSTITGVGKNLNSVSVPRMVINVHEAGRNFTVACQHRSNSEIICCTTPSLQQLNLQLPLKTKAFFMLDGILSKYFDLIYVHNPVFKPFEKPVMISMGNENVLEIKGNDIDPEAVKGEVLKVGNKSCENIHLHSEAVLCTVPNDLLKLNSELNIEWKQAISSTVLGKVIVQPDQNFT
binder,measurement,setting,value
"M-1E9 (antibody, V domains shown) VH: QVQLQQWGAGLLKPSETLSLTCVVFGGSFSGYYWSWIRQPPGKGLEWIGEINHSGSTNYNPSLKSRVTVSVDTSKKQFSLNLRSVTAADTAVYYCARGRGIAAAGTYFDYWGQGNLVTVSS VL: not shown",Kd,[1],30.1 nM
same,koff,[1],0.000698 s⁻¹
same,kon,[1],23200 M⁻¹ s⁻¹
same,Percentage of Positive Cells,human MET on SNU-5 cells,99.3%
same,Percentage of Positive Cells,[2],48.8%
"M-8D9 (antibody, V domains shown) VH: QVQLQESGPGLVKPSETLSLTCTVSGGSISGHYWSWIRQSPGKGLEWIGYITYSGSTNYNPSLKSRVTISVDTSKNQFSLKLSSVTAADTAVYYCGTIAVAGRVYYYGVDVWGRGTTVTVSS VL: not shown",Percentage of Positive Cells,[3],65.3%
same,Kd,[4],18.6 nM
same,koff,[4],0.000505 s⁻¹
same,kon,[4],27100 M⁻¹ s⁻¹
same,Percentage of Positive Cells,[5],99.8%
"E-9F3 (antibody, V domains shown) VH: QVQLQESGPGLVKPSQTLSLTCTVSGGSINSGDYYWSWIRQPPGKGLEWIGHIYYSGITYYNPSLKSRVTISADTSKNQFSLKLTSVTVADTAVYYCDRAGVYHDMDVWGQGTTVTVSS VL: not shown",Percentage of Positive Cells,[6],53.7%
same,Percentage of Positive Cells,[7],53.1%
same,Kd,[8],27.2 nM
same,koff,[8],0.00177 s⁻¹
same,kon,[8],64900 M⁻¹ s⁻¹
same,Kd,[9],39.9 nM
same,koff,[9],0.0019 s⁻¹
same,kon,[9],47600 M⁻¹ s⁻¹
"E-2B7 (antibody, V domains shown) VH: EVQLQQWGPGLVKPSQTLSLTCTVSGGSINSGDYYWSWIRQPPGKGLEWIGYIYYSGSTYYNPSLKSRVTISLDTSKNQLSLKLSSVTAADTAVYYCARNNDFGDYLYFDNWGQGTLVTVSS VL: not shown",binding result,[10],no binding (tested: antigen up to 400 nM)
same,Kd,[11],4.22 nM
same,koff,[11],0.000301 s⁻¹
same,kon,[11],71500 M⁻¹ s⁻¹
same,Kd,[12],6.49 nM
same,koff,[12],0.000296 s⁻¹
same,kon,[12],45600 M⁻¹ s⁻¹
same,Percentage of Positive Cells,[13],28.6%
same,Percentage of Positive Cells,[14],26.1%
same,Kd,[15],4.69 nM
same,koff,[15],0.000286 s⁻¹
same,kon,[15],61000 M⁻¹ s⁻¹
same,Kd,[16],5.32 nM
same,koff,[16],0.000342 s⁻¹
same,kon,[16],64300 M⁻¹ s⁻¹
"E-2B7-M-2F11 (bispecific antibody, 1+1 IgG1 bispecific with knobs-into-holes and a common light chain: first VH is the EGFR arm (E-2B7), second VH the MET arm (M-2F11); also called anti-EGFR/MET bispecific antibody E-2B7-M-2F11) VH 1: EVQLQQWGPGLVKPSQTLSLTCTVSGGSINSGDYYWSWIRQPPGKGLEWIGYIYYSGSTYYNPSLKSRVTISLDTSKNQLSLKLSSVTAADTAVYYCARNNDFGDYLYFDNWGQGTLVTVSS VH 2: EVQLVESGPGLVKPSETLSLTCTVSGGSISSNYWSWIRQPPGKGLEWIGYIYHSGSTNYNPSLKSRVTISVDTSKNQFSLKLSSVTAADTAVYFCARGPVSIFGVVKYIDLWGRGTLVTVSS light: not shown",Kd,[10],28.1 nM
same,koff,[10],0.00109 s⁻¹
same,kon,[10],38700 M⁻¹ s⁻¹
same,Kd,[11],6.82 nM
same,koff,[11],0.000503 s⁻¹
same,kon,[11],73800 M⁻¹ s⁻¹
same,Kd,[12],11.8 nM
same,koff,[12],0.000522 s⁻¹
same,kon,[12],44300 M⁻¹ s⁻¹
"E-3A8 (antibody, V domains shown) VH: EVQLVESGGGLVQPGGSLRLSCAVSGFIFSSYEMNWVRQAPGKGLEWVSYISSSGSTIYYADSVKGRFTISRDNAMNSLNLQMNSLRDEDTAVYYCVRVWYSSGWSGCFAYWGQGSLVTVSS VL: not shown",Percentage of Positive Cells,[13],23.8%
same,Percentage of Positive Cells,[14],31.2%
same,Kd,[15],23.2 nM
same,koff,[15],0.00101 s⁻¹
same,kon,[15],43500 M⁻¹ s⁻¹
same,Kd,[16],21.3 nM
same,koff,[16],0.00104 s⁻¹
same,kon,[16],48700 M⁻¹ s⁻¹
"E-3D8 (antibody, V domains shown) VH: EVQLVESGGGLVQPGGSLRLSCAASGFIFSSYEMNWVRQAPGKGLEWVSYISSSGSTIYYADSVKGRFTISRDNAKNSLYLQMNSLRADDTAIYYCARVWYSSGWSGCFAYWGQGTLVTVSS VL: not shown",Percentage of Positive Cells,[13],24.1%
same,Percentage of Positive Cells,[14],28.8%
same,Kd,[15],39 nM
same,koff,[15],0.00132 s⁻¹
same,kon,[15],33900 M⁻¹ s⁻¹
same,Kd,[16],34 nM
same,koff,[16],0.00132 s⁻¹
same,kon,[16],38700 M⁻¹ s⁻¹
"E-6C4-M-2G10 (bispecific antibody, also called anti-EGFR/MET bispecific antibody E-6C4-M-2G10) VH 1: QVQLQQWGPGLVKPSQTLSLTCTVSGGSINSGDYYWSWIRQPPGKGLESIGYIYYSGSTYYNPSLKSRVTISADTSKNQFSLKLTSVTAADTAVYYCARERVYSSSLDYWGQGTLVTVSS VH 2: EVQLVESGGGVVQPGRSLRLSCAASGFTFNICGIHWVRQAPGKGLEWVATISHDANDKYYADSVKGRFTISRDNSKNTLYLQMNSLRAEDTAVYYCARDGNRGYDGYFDYWGQGTLVTVSS light: not shown",Kd,[10],41.7 nM
same,koff,[10],0.00165 s⁻¹
same,kon,[10],39500 M⁻¹ s⁻¹
same,Kd,[11],53.1 nM
same,koff,[11],0.0174 s⁻¹
same,kon,[11],328000 M⁻¹ s⁻¹
same,Kd,[12],80.9 nM
same,koff,[12],0.011 s⁻¹
same,kon,[12],136000 M⁻¹ s⁻¹
"M-2F11 (antibody, V domains shown) VH: EVQLVESGPGLVKPSETLSLTCTVSGGSISSNYWSWIRQPPGKGLEWIGYIYHSGSTNYNPSLKSRVTISVDTSKNQFSLKLSSVTAADTAVYFCARGPVSIFGVVKYIDLWGRGTLVTVSS VL: not shown",Kd,[1],54.2 nM
same,koff,[1],0.00313 s⁻¹
same,kon,[1],57700 M⁻¹ s⁻¹
same,Kd,[10],55.6 nM
same,koff,[10],0.0022 s⁻¹
same,kon,[10],39600 M⁻¹ s⁻¹
same,binding result,[11],no binding (tested: antigen up to 400 nM)
same,binding result,[12],no binding (tested: antigen up to 400 nM)
same,Percentage of Positive Cells,human MET on SNU-5 cells,97.1%
same,Percentage of Positive Cells,[2],71.1%
"E-6C4-M-2F11 (bispecific antibody, also called anti-EGFR/MET bispecific antibody E-6C4-M-2F11) VH 1: QVQLQQWGPGLVKPSQTLSLTCTVSGGSINSGDYYWSWIRQPPGKGLESIGYIYYSGSTYYNPSLKSRVTISADTSKNQFSLKLTSVTAADTAVYYCARERVYSSSLDYWGQGTLVTVSS VH 2: EVQLVESGPGLVKPSETLSLTCTVSGGSISSNYWSWIRQPPGKGLEWIGYIYHSGSTNYNPSLKSRVTISVDTSKNQFSLKLSSVTAADTAVYFCARGPVSIFGVVKYIDLWGRGTLVTVSS light: not shown",Kd,[10],50.5 nM
same,koff,[10],0.00187 s⁻¹
same,kon,[10],37000 M⁻¹ s⁻¹
same,Kd,[11],70.7 nM
same,koff,[11],0.0215 s⁻¹
same,kon,[11],304000 M⁻¹ s⁻¹
same,Kd,[12],115 nM
same,koff,[12],0.0198 s⁻¹
same,kon,[12],172000 M⁻¹ s⁻¹
"E-9A6 (antibody, V domains shown) VH: EVQLQQSGPGLVKPSQTLSLTCTVSGGSISSGDYYWNWIRQPPGKGLEWIGYIYYSGSTYYNPSLKSRVTISVDTSKNQFSLKLSSVTAADTAVYYCAREGVYTIMVDYWGQGTLVTVSS VL: not shown",Percentage of Positive Cells,[6],55.4%
same,Percentage of Positive Cells,[7],56.9%
same,Kd,[8],9.44 nM
same,koff,[8],0.00176 s⁻¹
same,kon,[8],186000 M⁻¹ s⁻¹
same,Kd,[9],12.6 nM
same,koff,[9],0.00173 s⁻¹
same,kon,[9],138000 M⁻¹ s⁻¹
"E-9H2 (antibody, V domains shown) VH: EVQLVESGPGLVKPSQTLSLTCTVSGDSISSGDYYWSWIRQPPGKGLEWIGYIYYSGSTYYNPSLKSRVIISLDTSKNQFSLKLISVTAADTAVYYCARVGVYSTSRDYWGQGTLVTVSS VL: not shown",Percentage of Positive Cells,[6],41.5%
same,Percentage of Positive Cells,[7],44.3%
same,Kd,[8],98.3 nM
same,koff,[8],0.0151 s⁻¹
same,kon,[8],154000 M⁻¹ s⁻¹
same,Kd,[9],152 nM
same,koff,[9],0.0177 s⁻¹
same,kon,[9],117000 M⁻¹ s⁻¹
"E-6C4 (antibody, V domains shown) VH: QVQLQQWGPGLVKPSQTLSLTCTVSGGSINSGDYYWSWIRQPPGKGLESIGYIYYSGSTYYNPSLKSRVTISADTSKNQFSLKLTSVTAADTAVYYCARERVYSSSLDYWGQGTLVTVSS VL: not shown",binding result,[10],no binding (tested: antigen up to 400 nM)
same,Kd,[12],158 nM
same,Percentage of Positive Cells,[13],25.4%
same,Percentage of Positive Cells,[14],26.4%
same,Kd,[16],90.3 nM
"E-9D2 (antibody, V domains shown) VH: EVQLQESGPGLVKPSQTLSLTCTVSGGSISSGDYYWSWIRQPPGKGLEWIGYIYYSGSTYYNPSLKSRVTISVDTSKNQFSLRLSSVTAADTAVYYCARDLVYYYALDVWGQGTTVTVSS VL: not shown",Percentage of Positive Cells,[6],45.9%
same,Percentage of Positive Cells,[7],38.7%
same,Kd,[8],60.3 nM
same,koff,[8],0.0152 s⁻¹
same,kon,[8],252000 M⁻¹ s⁻¹
same,Kd,[9],99.8 nM
same,koff,[9],0.0203 s⁻¹
same,kon,[9],203000 M⁻¹ s⁻¹
